Measured values taken from paper PMC3653948, “PDZ Domain-Mediated Interactions of G Protein-Coupled Receptors with Postsynaptic Density Protein 95: Quantitative Characterization of Interactions” (PLoS ONE, 2013).
pKi: −log10 of the molar value.

Key:
PSD-95 PDZ2 (aa 155–249) [1] = target: PSD-95 PDZ2 (aa 155–249) (UniProt P78352); test: fluorescence polarisation; competition: 25 nM Cy5-labeled probe and a constant concentration of PDZ protein corresponding to the K d of the probe, twofold dilution series of unlabeled peptide (typically 1–512 µM); 10 mM HEPES pH 7.4, 150 mM NaCl, 1% BSA; room temperature; K i calculated from the IC50
PSD-95 PDZ3 (aa 309–401) [2] = target: PSD-95 PDZ3 (aa 309–401) (UniProt P78352); test: as above
PSD-95 PDZ1 (aa 61–151) [3] = target: PSD-95 PDZ1 (aa 61–151) (UniProt P78352); test: as above
PSD-95 PDZ2 (aa 155–249) [4] = target: PSD-95 PDZ2 (aa 155–249) (UniProt P78352); test: SPR; PDZ domains immobilised by amine coupling on Sensor Chip CM5 (PDZ1, PDZ2) or CM4 (PDZ3); peptides injected 1 min, 1 min dissociation, 30 µl/min; […]; HBS-EP+ (10 mM HEPES pH 7.4, 150 mM NaCl, 3 mM EDTA, 0.05% Surfactant P-20)
PSD-95 PDZ3 (aa 309–401) [5] = target: PSD-95 PDZ3 (aa 309–401) (UniProt P78352); test: as above
PSD-95 PDZ1 (aa 61–151) [6] = target: PSD-95 PDZ1 (aa 61–151) (UniProt P78352); test: as above

For “5-hydroxytryptamine receptor 2A (5-HTR2A) C-tail peptide, human”, the pKi (PSD-95 PDZ2 (aa 155–249) [1]) was 4.34, the pKi (PSD-95 PDZ3 (aa 309–401) [2]) was < 3.00 and the pKi (PSD-95 PDZ1 (aa 61–151) [3]) was 3.80.
Work on “5-hydroxytryptamine receptor 2C (5-HTR2C) C-tail peptide, human” yielded a pKi (PSD-95 PDZ2 (aa 155–249) [1]) of 4.59, a pKi (PSD-95 PDZ3 (aa 309–401) [2]) of 3.43 and a pKi (PSD-95 PDZ1 (aa 61–151) [3]) of 4.00. The koff (PSD-95 PDZ2 (aa 155–249) [4]) was > 1 s⁻¹, the koff (PSD-95 PDZ3 (aa 309–401) [5]) was > 1 s⁻¹ and the koff (PSD-95 PDZ1 (aa 61–151) [6]) was > 1 s⁻¹.
BAI1 receptor C-tail peptide, human showed a pKi (PSD-95 PDZ2 (aa 155–249) [1]) of 4.54, a pKi (PSD-95 PDZ3 (aa 309–401) [2]) of 3.10 and a pKi (PSD-95 PDZ1 (aa 61–151) [3]) of 4.20.
Substance “chemokine receptor CXCR2 C-tail peptide, human” has a pKi (PSD-95 PDZ2 (aa 155–249) [1]) of 3.43, a pKi (PSD-95 PDZ3 (aa 309–401) [2]) of 3.43 and a pKi (PSD-95 PDZ1 (aa 61–151) [3]) of 3.55.
“human somatostatin receptor 1 (hSSTR1) C-tail peptide” showed a pKi (PSD-95 PDZ2 (aa 155–249) [1]) of 4.55, a pKi (PSD-95 PDZ3 (aa 309–401) [2]) of 3.70 and a pKi (PSD-95 PDZ1 (aa 61–151) [3]) of 4.30.
In the case of “human somatostatin receptor 4 (hSSTR4) C-tail peptide”, the pKi (PSD-95 PDZ2 (aa 155–249) [1]) was 3.35, the pKi (PSD-95 PDZ3 (aa 309–401) [2]) was 3.22 and the pKi (PSD-95 PDZ1 (aa 61–151) [3]) was 3.12.
In the case of “mouse somatostatin receptor 1 (mSSTR1) C-tail peptide”, the pKi (PSD-95 PDZ2 (aa 155–249) [1]) was 4.05, the pKi (PSD-95 PDZ3 (aa 309–401) [2]) was < 3.00 and the pKi (PSD-95 PDZ1 (aa 61–151) [3]) was 3.57.
In the case of “mouse somatostatin receptor 4 (mSSTR4) C-tail peptide”, the pKi (PSD-95 PDZ2 (aa 155–249) [1]) was 3.38, the pKi (PSD-95 PDZ3 (aa 309–401) [2]) was < 3.00 and the pKi (PSD-95 PDZ1 (aa 61–151) [3]) was < 3.00.
For “neuropeptide Y receptor Y2 C-tail peptide, human”, the pKi (PSD-95 PDZ2 (aa 155–249) [1]) was 3.64, the pKi (PSD-95 PDZ3 (aa 309–401) [2]) was < 3.00 and the pKi (PSD-95 PDZ1 (aa 61–151) [3]) was 3.57.
In the case of “somatostatin receptor 2A (SSTR2A) C-tail peptide, human”, the pKi (PSD-95 PDZ2 (aa 155–249) [1]) was 3.64, the pKi (PSD-95 PDZ3 (aa 309–401) [2]) was < 3.00 and the pKi (PSD-95 PDZ1 (aa 61–151) [3]) was 3.21.
For “somatostatin receptor 3 (SSTR3) C-tail peptide, human”, the pKi (PSD-95 PDZ2 (aa 155–249) [1]) was < 3.00, the pKi (PSD-95 PDZ3 (aa 309–401) [2]) was 3.55 and the pKi (PSD-95 PDZ1 (aa 61–151) [3]) was 3.21.
“β1-adrenergic receptor (β1AR) C-tail peptide, human” showed a pKi (PSD-95 PDZ2 (aa 155–249) [1]) of 3.92, a pKi (PSD-95 PDZ3 (aa 309–401) [2]) of 3.44 and a pKi (PSD-95 PDZ1 (aa 61–151) [3]) of 3.37.
